Measurements reported in paper PMC2710002, “KCNE1 and KCNE3 β-Subunits Regulate Membrane Surface Expression of Kv12.2 K^+ Channels In Vitro and Form a Tripartite Complex In Vivo” (PLoS ONE, 2009).

Biological target: the molecule itself
Assay: native gel or EMSA; blue native PAGE (4-16% NativePAGE Novex Bis-Tris, G-250, pH 7, 4°C) of proteins immunoprecipitated from digitonin lysate of mouse brain; blot with anti-Kv12.2; size of the Kv12.2 complex

B1: Kv12.2 channel (natural protein, mouse (endogenous in mouse brain), UniProt Q9WVJ0 1-1095, looked up)
chain: MPAMRGLLAPQNTFLDTIATRFDGTHSNFVLGNAQVAGLFPVVYCSDGFCDLTGFSRAEVMQRGCACSFLYGPDTSELVRQQIRKALDEHKEFKAELILYRKSGLPFWCLLDVIPIKNEKGEVALFLVSHKDISETKNRGGPDNWKERGGGRRRYGRAGSKGFNANRRRSRAVLYHLSGHLQKQPKGKHKLNKGVFGEKPNLPEYKVAAIRKSPFILLHCGALRATWDGFILLATLYVAVTVPYSVCVSTAREPSAARGPPSVCDLAVEVLFILDIVLNFRTTFVSKSGQVVFAPKSICLHYVTTWFLLDVIAALPFDLLHAFKVNVYVGAHLLKTVRLLRLLRLLPRLDRYSQYSAVVLTLLMAVFALLAHWVACVWFYIGQQEIESSESELPEIGWLQELARRLETPYYLVSRSPDGGNSSGQSENCSSSSSSSGSGGGRGSEANGTGLELLGGPSLRSAYITSLYFALSSLTSVGFGNVSANTDTEKIFSICTMLIGALMHAVVFGNVTAIIQRMYARRFLYHSRTRDLRDYIRIHRIPKPLKQRMLEYFQATWAVNNGIDTTELLQSLPDELRADIAMHLHKEVLQLPLFEAASRGCLRALSLALRPAFCTPGEYLIHQGDALQALYFVCSGSMEVLKGGTVLAILGKGDLIGCELPQREQVVKANADVKGLTYCVLQCLQLAGLHESLALYPEFAPRFSRGLRGELSYNLGAGGVSAEVDTSSLSGDNTLMSTLEEKETDGEQGHTVSPAPADEPSSPLLSPGCTSSSSAAKLLSPRRTAPRPRLGGRGRPSRAGVLKPEAGPSAHPRSLDGLQLPPMPWNVPPDLSPRVVDGIEDGCSSDQPKFSFRVGQSGPECSSSPSPGTESGLLTVPLGPSEARNTDTLDKLRQAVMELSEQVLQMREGLQSLRQAVQLILVPQGEGQCPRGSGEEPCPATASGLLQPLRVDTGASSYCLQPPAGSVLSGTWPHPRPGQPPPLMAPWPWGPPASQSSPWPRATALWTSTSDSEPPGSGDLCSEPSTPASPPPSEEGARTGTPAPVSQAEATSTGEPPPGPGGRALPWDPHSLEMVLIGCHGPGTVQWTQEEGTGV
notes: Kv12.2 (ELK2, KCNH3) voltage-gated potassium channel alpha subunit, mouse, endogenous in brain; about 120 kDa monomer on a denaturing gel, about 500 kDa complex on a native gel; also called ELK2; KCNH3; source: endogenous, mouse brain membrane lysate (0.5% Igepal) or whole mouse brain lysate (1% digitonin)
stoichiometry N: 4
